For assay [1], the target named is T1, recombinant LILRB1 (Homo sapiens, UniProt Q8NHL6). In words: BLI + ELISA. (In an ELISA, binding on a coated surface is turned into a signal by an enzyme label.)
Assay [2] has as its target T1, recombinant LILRB1. In words: ELISA.
For assay [3], the target named is T1, recombinant LILRB1. In words: BLI.

Positions count from the first letter of the chain named. Names may count otherwise.

T1 sequence (Q8NHL6 24-461): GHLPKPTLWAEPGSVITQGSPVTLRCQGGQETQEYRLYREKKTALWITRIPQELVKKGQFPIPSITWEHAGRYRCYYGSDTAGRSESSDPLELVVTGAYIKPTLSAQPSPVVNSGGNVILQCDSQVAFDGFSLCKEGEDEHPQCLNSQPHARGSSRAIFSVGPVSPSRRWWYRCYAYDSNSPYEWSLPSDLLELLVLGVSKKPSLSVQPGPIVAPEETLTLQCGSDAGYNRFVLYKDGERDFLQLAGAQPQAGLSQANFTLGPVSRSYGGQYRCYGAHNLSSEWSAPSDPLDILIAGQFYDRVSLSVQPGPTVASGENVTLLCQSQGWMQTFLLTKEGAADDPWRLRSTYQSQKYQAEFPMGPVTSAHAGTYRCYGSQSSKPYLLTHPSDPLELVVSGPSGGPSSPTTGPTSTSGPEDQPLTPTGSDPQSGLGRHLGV

B1: humanized anti-LILRB1 antibody Hu B1-176-N297A (antibody, V domains shown)
VH: EVQLVESGGGLVQPGGSLRLSCAASGFSFSSSYCMCWVRQAPGKGLELVSCIYTDSSGATYYASWAKGRFTISRHNSKNTLYLQMNSLRAEDTAVYYCARGWDYEDPGYTDTTYFSLWGRGTLVTVSS
VL: DIQLTQSPSFLSASVGDRVTITCQASQTIYTNLAWYQQKPGKAPKLLIYAASTLASGVPSRFSGSGSGTEFTLTISSLQPEDFATYYCQSYYGSSTTGNGFGGGTKVEIK
Consider B1, for which the binding result with recombinant LILRB1 [1] was “binds”.

B2: humanized anti-LILRB1 antibody Hu B1-176-LALAPG (antibody, V domains shown)
VH: B1 VH
VL: B1 VL
On to B2, for which the binding result in the assay with recombinant LILRB1 [1] was “binds”.

B3: humanized B1-176 with heavy chain Hu-176 VH-2 (W48L), as tested in Figure 3B (antibody, V domains shown)
VH: B1 VH
VL: B1 VL
In the case of B3, the binding result with recombinant LILRB1 [2] is given as “binds”.

B4: humanized B1-176 with heavy chain Hu-176 VH-1 and light chain Hu-176 VL (antibody, V domains shown)
VH: B1 VH with L48W
VL: B1 VL
As to B4, in the assay with recombinant LILRB1 [2], the binding result is “binds”.

B5: rabbit anti-LILRB1 monoclonal antibody B1-176 (antibody, V domains shown)
VH: QSLEESEGGLVKPGGTLTLTCTASGFSFSSSYCMCWVRQAPGKGLELIACIYTDSSGATYYASWAKGRFTISKSSSTTITLQMTSLTAADTATYFCARGWDYEDPGYTDTTYFSLWGPGTLVTVSS
VL: ELDLTQTPSSVEAAVGGTVTIKCQASQTIYTNLAWYQQKPGQPPNLLIYAASTLASGVSSRFKGSGSGTEFTLTISDLECADAATYYCQSYYGSSTTGNGFGGGTEVEIK
Broadly, the Kd is the constant that tells how readily two partners part at equilibrium. For B5, the Kd with recombinant LILRB1 [3] was ~0.01 nM.

(Values after PMC7418854 (Journal for Immunotherapy of Cancer, 2020).)
